Measured values reported in patent US20150087577A1 (POLYPHOR, published 2015).
Bridges are numbered along the chain shown (N, C = ends). Primed or numbered codes have the meaning given here. [ ]: non-standard residue; d: D form. A8″‑42 = template L-Pro residue whose 4-amino group is acylated with CH3-(OCH2CH2)2-OCH2-CO (2-[2-(2-methoxyethoxy)ethoxy]acetyl), per the notes; 2Nal = N[C@@H](Cc1ccc2ccccc2c1)C(=O)O; Cit = NC(=O)NCCC[C@H](N)C(=O)O; Dab = NCC[C@H](N)C(=O)O

These binders were tested against human CXCR4 (human, UniProt P61073 1-352) (assay: cell-based or functional assay).
Sequence of human CXCR4 (P61073 whole entry): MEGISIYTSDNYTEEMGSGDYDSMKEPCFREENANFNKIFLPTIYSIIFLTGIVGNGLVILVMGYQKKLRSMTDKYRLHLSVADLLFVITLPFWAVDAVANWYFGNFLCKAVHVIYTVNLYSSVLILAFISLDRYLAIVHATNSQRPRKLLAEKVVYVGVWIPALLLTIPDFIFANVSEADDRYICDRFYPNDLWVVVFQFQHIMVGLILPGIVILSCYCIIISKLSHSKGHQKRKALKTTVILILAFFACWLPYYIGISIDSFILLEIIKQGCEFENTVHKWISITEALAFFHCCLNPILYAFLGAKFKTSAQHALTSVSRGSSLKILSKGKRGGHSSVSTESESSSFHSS

Binder | IC50 (nM) Ca2+ assay (method 2) [nM] | IC50 (nM) Ca2+ assay (method 1) [nM]
cyclo(FR[Cit]CRG[dP]RRWCY[Cit]K[dP]P) (disulfide 4-11; SMILES N=C(N)NCCC[C@@H]1NC(=O)[C@@H]2CSSC[C@H](NC(=O)[C@H](Cc3c[nH]c4ccccc34)NC(=O)[C@H](CCCNC(=N)N)NC(=O)[C@H](CCCNC(=N)N)NC(=O)[C@H]3CCCN3C(=O)CNC1=O)C(=O)N[C@@H](Cc1ccc(O)cc1)C(=O)N[C@@H](CCCNC(N)=O)C(=O)N[C@@H](CCCCN)C(=O)N1CCC[C@@H]1C(=O)N1CCC[C@H]1C(=O)N[C@@H](Cc1ccccc1)C(=O)N[C@@H](CCCNC(=N)N)C(=O)N[C@@H](CCCNC(N)=O)C(=O)N2) [Example 107] | 3.8 | –
cyclo(YR[Cit]CRG[dP]RRWCYQK[dP]P) (disulfide 4-11; SMILES N=C(N)NCCC[C@@H]1NC(=O)[C@@H]2CSSC[C@H](NC(=O)[C@H](Cc3c[nH]c4ccccc34)NC(=O)[C@H](CCCNC(=N)N)NC(=O)[C@H](CCCNC(=N)N)NC(=O)[C@H]3CCCN3C(=O)CNC1=O)C(=O)N[C@@H](Cc1ccc(O)cc1)C(=O)N[C@@H](CCC(N)=O)C(=O)N[C@@H](CCCCN)C(=O)N1CCC[C@@H]1C(=O)N1CCC[C@H]1C(=O)N[C@@H](Cc1ccc(O)cc1)C(=O)N[C@@H](CCCNC(=N)N)C(=O)N[C@@H](CCCNC(N)=O)C(=O)N2) [Example 108] | 4.6 | –
cyclo(YR[Cit]CRG[dP][Dab]RWCYQK[dP]P) (disulfide 4-11; SMILES N=C(N)NCCC[C@@H]1NC(=O)[C@@H]2CSSC[C@H](NC(=O)[C@H](Cc3c[nH]c4ccccc34)NC(=O)[C@H](CCCNC(=N)N)NC(=O)[C@H](CCN)NC(=O)[C@H]3CCCN3C(=O)CNC1=O)C(=O)N[C@@H](Cc1ccc(O)cc1)C(=O)N[C@@H](CCC(N)=O)C(=O)N[C@@H](CCCCN)C(=O)N1CCC[C@@H]1C(=O)N1CCC[C@H]1C(=O)N[C@@H](Cc1ccc(O)cc1)C(=O)N[C@@H](CCCNC(=N)N)C(=O)N[C@@H](CCCNC(N)=O)C(=O)N2) [Example 109] | 3 | –
cyclo(YRTCRG[dP][Dab]RWCYQK[dP]P) (disulfide 4-11; SMILES C[C@@H](O)[C@@H]1NC(=O)[C@H](CCCNC(=N)N)NC(=O)[C@H](Cc2ccc(O)cc2)NC(=O)[C@@H]2CCCN2C(=O)[C@H]2CCCN2C(=O)[C@H](CCCCN)NC(=O)[C@H](CCC(N)=O)NC(=O)[C@H](Cc2ccc(O)cc2)NC(=O)[C@@H]2CSSC[C@H](NC1=O)C(=O)N[C@@H](CCCNC(=N)N)C(=O)NCC(=O)N1CCC[C@@H]1C(=O)N[C@@H](CCN)C(=O)N[C@@H](CCCNC(=N)N)C(=O)N[C@@H](Cc1c[nH]c3ccccc13)C(=O)N2) [Example 110] | 1.7 | –
cyclo(YR[Cit]C[Dab]G[dP]RRWCYQK[dP]P) (disulfide 4-11; SMILES N=C(N)NCCC[C@@H]1NC(=O)[C@H](CCCNC(=N)N)NC(=O)[C@H]2CCCN2C(=O)CNC(=O)[C@H](CCN)NC(=O)[C@@H]2CSSC[C@H](NC(=O)[C@H](Cc3c[nH]c4ccccc34)NC1=O)C(=O)N[C@@H](Cc1ccc(O)cc1)C(=O)N[C@@H](CCC(N)=O)C(=O)N[C@@H](CCCCN)C(=O)N1CCC[C@@H]1C(=O)N1CCC[C@H]1C(=O)N[C@@H](Cc1ccc(O)cc1)C(=O)N[C@@H](CCCNC(=N)N)C(=O)N[C@@H](CCCNC(N)=O)C(=O)N2) [Example 111] | 1.6 | –
cyclo(YR[Cit]CRG[dP]RRYCY[Cit]K[dP]P) (disulfide 4-11; SMILES N=C(N)NCCC[C@@H]1NC(=O)[C@@H]2CSSC[C@H](NC(=O)[C@H](Cc3ccc(O)cc3)NC(=O)[C@H](CCCNC(=N)N)NC(=O)[C@H](CCCNC(=N)N)NC(=O)[C@H]3CCCN3C(=O)CNC1=O)C(=O)N[C@@H](Cc1ccc(O)cc1)C(=O)N[C@@H](CCCNC(N)=O)C(=O)N[C@@H](CCCCN)C(=O)N1CCC[C@@H]1C(=O)N1CCC[C@H]1C(=O)N[C@@H](Cc1ccc(O)cc1)C(=O)N[C@@H](CCCNC(=N)N)C(=O)N[C@@H](CCCNC(N)=O)C(=O)N2) [Example 112] | 7.8 | –
cyclo(YR[Cit]CRG[dP]RRYC[Cit]YK[dP]P) (disulfide 4-11; SMILES N=C(N)NCCC[C@@H]1NC(=O)[C@@H]2CSSC[C@H](NC(=O)[C@H](Cc3ccc(O)cc3)NC(=O)[C@H](CCCNC(=N)N)NC(=O)[C@H](CCCNC(=N)N)NC(=O)[C@H]3CCCN3C(=O)CNC1=O)C(=O)N[C@@H](CCCNC(N)=O)C(=O)N[C@@H](Cc1ccc(O)cc1)C(=O)N[C@@H](CCCCN)C(=O)N1CCC[C@@H]1C(=O)N1CCC[C@H]1C(=O)N[C@@H](Cc1ccc(O)cc1)C(=O)N[C@@H](CCCNC(=N)N)C(=O)N[C@@H](CCCNC(N)=O)C(=O)N2) [Example 113] | 0.62 | –
cyclo(GR[Cit]CRG[dP]RR[2Nal]CY[Cit]K[dP]P) (disulfide 4-11; SMILES N=C(N)NCCC[C@@H]1NC(=O)CNC(=O)[C@@H]2CCCN2C(=O)[C@H]2CCCN2C(=O)[C@H](CCCCN)NC(=O)[C@H](CCCNC(N)=O)NC(=O)[C@H](Cc2ccc(O)cc2)NC(=O)[C@@H]2CSSC[C@H](NC(=O)[C@H](CCCNC(N)=O)NC1=O)C(=O)N[C@@H](CCCNC(=N)N)C(=O)NCC(=O)N1CCC[C@@H]1C(=O)N[C@@H](CCCNC(=N)N)C(=O)N[C@@H](CCCNC(=N)N)C(=O)N[C@@H](Cc1ccc3ccccc3c1)C(=O)N2) [Example 114] | 1.3 | –
cyclo(YR[Cit]FRVPRR[2Nal]VY[Cit]K[dP]P) (SMILES CC(C)[C@@H]1NC(=O)[C@H](Cc2ccc3ccccc3c2)NC(=O)[C@H](CCCNC(=N)N)NC(=O)[C@H](CCCNC(=N)N)NC(=O)[C@@H]2CCCN2C(=O)[C@H](C(C)C)NC(=O)[C@H](CCCNC(=N)N)NC(=O)[C@H](Cc2ccccc2)NC(=O)[C@H](CCCNC(N)=O)NC(=O)[C@H](CCCNC(=N)N)NC(=O)[C@H](Cc2ccc(O)cc2)NC(=O)[C@@H]2CCCN2C(=O)[C@H]2CCCN2C(=O)[C@H](CCCCN)NC(=O)[C@H](CCCNC(N)=O)NC(=O)[C@H](Cc2ccc(O)cc2)NC1=O) [Example 22] | – | 300
cyclo(YR[Cit]CRG[dP]RR[2Nal]CYQK[dP]P) (disulfide 4-11; SMILES N=C(N)NCCC[C@@H]1NC(=O)[C@@H]2CSSC[C@H](NC(=O)[C@H](Cc3ccc4ccccc4c3)NC(=O)[C@H](CCCNC(=N)N)NC(=O)[C@H](CCCNC(=N)N)NC(=O)[C@H]3CCCN3C(=O)CNC1=O)C(=O)N[C@@H](Cc1ccc(O)cc1)C(=O)N[C@@H](CCC(N)=O)C(=O)N[C@@H](CCCCN)C(=O)N1CCC[C@@H]1C(=O)N1CCC[C@H]1C(=O)N[C@@H](Cc1ccc(O)cc1)C(=O)N[C@@H](CCCNC(=N)N)C(=O)N[C@@H](CCCNC(N)=O)C(=O)N2) [Example 115] | 2.7 | –
cyclo(YR[Cit]CRG[dP]RRWCY[Cit]K[dP][A8″‑42]) (disulfide 4-11) [Example 116] | 14.5 | –
